Experimental findings from article PMC12007268 are described below.

Test [1] concerns the target trastuzumab (wild-type Fc) (human). The test can be described thus: SPR; Biacore T200; trastuzumab-Fc variants amine-coupled to a CM5 chip (about 1,000 RU); hFcRn-His 1,000 to 62.5 nM in 1x PBST pH 6.0, 30 µl/min; 1:1 binding model (trastuzumab: steady state); triplicate. For orientation: Surface plasmon resonance follows binding to a sensor surface in real time, without labels.

The target of test [2] is trastuzumab-DHS (L309D/Q311H/N434S) (human). Described as above.
Test [3] deals with trastuzumab-EML (L309E/Q311M/M428L) (human). The test is described as above.
The target in test [4] is trastuzumab-PFc29 (Q311R/M428L) (human). Described as above.
The target in test [5] is trastuzumab-YML (L309Y/Q311M/M428L) (human). Described as above.
The target in test [6] is FcRn immobilised on the FcRn affinity column Gen2 (Roche Diagnostics) (human) (UniProt P55899). Description: pH-gradient FcRn affinity column chromatography; FcRn affinity column Gen2 (Roche); pH gradient; retention time and pH of elution.
Test [7] deals with human neonatal Fc receptor, His-tagged (hFcRn-His) (UniProt P55899). Description: BLI; Octet R8; hFcRn-His (40 µg/ml) held on NTA biosensors; trastuzumab-Fc variants in PBS pH 6.0 bound for 20 s, then dissociation in PBS pH 7.4 for 5 s; initial on-rate from the first 2 s, initial off-rate from the first 1 s; values relative to trastuzumab. (In general: In BLI a coated tip is dipped into the sample, and binding shifts an interference pattern.)

For test [8] the target is unchanged. The test can be described thus: BLI (Octet R8). The conditions noted are these: PBS (composition not stated), PBS pH 6.0 for association, PBS pH 7.4 for dissociation; for Relative on-rate (initial association rate, normalised to trastuzumab) (fold relative to trastuzumab): pH 6.0; for Relative off-rate (initial dissociation rate, normalised to trastuzumab) (fold relative to trastuzumab): pH 7.4.

Test [9] shares this target. The test can be described thus: SPR (Biacore T200). The conditions noted are these: pH 6.0; 1× PBS (composition not stated); 1× PBST (pH 6.0).
The target is the same in test [10].

For “human neonatal Fc receptor, His-tagged (hFcRn-His) (from UniProt P55899 24-297; P61769 21-119)”, the equilibrium dissociation constant (Kd) (commonly the constant that tells how readily two partners part at equilibrium) in [1] came to 4360 nM; in test [2], 1800 nM; in test [3], 1670 nM; in [4] it was 1810 nM; in [5], 878 nM. Moreover, the koff (commonly a measure of how fast the partners let go of each other) came to 0.0645 s⁻¹ in [2], 0.0475 s⁻¹ in test [3], 0.0721 s⁻¹ in [4] and 0.0555 s⁻¹ in [5]. Also, the kon (as a rule, the second-order rate constant of association) in test [2] came out at 35700 M⁻¹ s⁻¹; in test [3], 28500 M⁻¹ s⁻¹; in test [4], 39800 M⁻¹ s⁻¹; in test [5], 63200 M⁻¹ s⁻¹.

In test [6], trastuzumab (wild-type Fc) (antibody) displayed a pH at elution from the FcRn affinity column of 7.65 pH and a retention time on the pH-gradient FcRn affinity column of 40.6 min. Besides, in test [7], the average of relative on- and off-rate worked out at 1 fold; the relative initial off-rate at pH 7.4 (against trastuzumab) is 1 fold; the relative initial on-rate at pH 6.0 (against trastuzumab) was 1 fold.

In [8], trastuzumab (wild-type human IgG1 Fc) yielded a Relative on-rate (initial association rate, normalised to trastuzumab) (fold relative to trastuzumab) of 1 and a Relative off-rate (initial dissociation rate, normalised to trastuzumab) (fold relative to trastuzumab) of 1.

Regarding “trastuzumab-DHS (L309D/Q311H/N434S) (antibody)”, in test [7], the average of relative on- and off-rate came to 1.82 fold; the relative initial off-rate at pH 7.4 (against trastuzumab) came to 1.83 fold; the relative initial on-rate at pH 6.0 (against trastuzumab) turned out to be 1.81 fold.

In test [8], trastuzumab-DHS L309D;Q311H;N434S returned a Relative on-rate (initial association rate, normalised to trastuzumab) (fold relative to trastuzumab) of 1.81 and a Relative off-rate (initial dissociation rate, normalised to trastuzumab) (fold relative to trastuzumab) of 1.83. In test [9], this substance yielded a ka of 35700 M⁻¹ s⁻¹ and a kd of 0.0645 s⁻¹.

In [6], “trastuzumab-EML (L309E/Q311M/M428L) (antibody)” gave a pH at elution from the FcRn affinity column of 7.97 pH and a retention time on the pH-gradient FcRn affinity column of 48 min. In [7], this substance gave an average of relative on- and off-rate of 1.48 fold; a relative initial off-rate at pH 7.4 (against trastuzumab) of 1.5 fold; a relative initial on-rate at pH 6.0 (against trastuzumab) of 1.47 fold.

In test [8], trastuzumab-EML L309E;Q311M;M428L yielded a Relative on-rate (initial association rate, normalised to trastuzumab) (fold relative to trastuzumab) of 1.47 and a Relative off-rate (initial dissociation rate, normalised to trastuzumab) (fold relative to trastuzumab) of 1.5. Also, in [9], the ka was 28500 M⁻¹ s⁻¹ and the kd came out at 0.0475 s⁻¹.

As for “trastuzumab-PFc29 (Q311R/M428L) (antibody)”, in test [6], the pH at elution from the FcRn affinity column is 8.05 pH and the retention time on the pH-gradient FcRn affinity column is 50.2 min. Further, in test [7], the average of relative on- and off-rate is 1.77 fold; the relative initial off-rate at pH 7.4 (against trastuzumab) came out at 1.6 fold; the relative initial on-rate at pH 6.0 (against trastuzumab) was 1.94 fold.

trastuzumab-PFc29 Q311R;M428L: in test [8], the Relative on-rate (initial association rate, normalised to trastuzumab) (fold relative to trastuzumab) stood at 1.94 and the Relative off-rate (initial dissociation rate, normalised to trastuzumab) (fold relative to trastuzumab) worked out at 1.6. In test [9], this substance returned a ka of 39800 M⁻¹ s⁻¹ and a kd of 0.0721 s⁻¹.

With “trastuzumab-YML (L309Y/Q311M/M428L) (antibody)”, the serum half-life t1/2 (terminal, beta-phase) in hFcRn transgenic mice (Tg276 hemizygous), single i.v. bolus 5 mg/kg, n = 3 in test [10] amounted to 13.5 days. In addition, in [6], the pH at elution from the FcRn affinity column is 8.09 pH and the retention time on the pH-gradient FcRn affinity column was 51.2 min. Besides, in test [7], the average of relative on- and off-rate stood at 1.92 fold; the relative initial off-rate at pH 7.4 (against trastuzumab) amounted to 1.74 fold; the relative initial on-rate at pH 6.0 (against trastuzumab) stood at 2.1 fold.

For the substance trastuzumab-YML L309Y;Q311M;M428L, in [8], the Relative on-rate (initial association rate, normalised to trastuzumab) (fold relative to trastuzumab) was found to be 2.1 and the Relative off-rate (initial dissociation rate, normalised to trastuzumab) (fold relative to trastuzumab) stood at 1.74. In test [9], this substance registered a ka of 63200 M⁻¹ s⁻¹ and a kd of 0.0555 s⁻¹.
